Data reported in US20140087995A1 (published 2014).
Numbered stars: 1 amine (or outer) side, 2 acyl side, 3 side chain; on linkers, the order of the positions; unused ones are H or OH. Bridge positions count the residues as written; N and C are the ends. Side chains are listed from the residue outwards. Ends that are not written are not given here. * marks the point of attachment. C20 diacid = O=C(O)CCCCCCCCCCCCCCCCCCC(=O)*; γGlu = O=C(O)[C@H](CCC(=O)[*:2])N[*:1]

T1: rat calcitonin receptor (rat, UniProt P32214 25-516)
T1 construct: whole, on cells; Membranes of transiently transfected BHK tk'ts 13 cells (Assay VIII); also called rCTR
T1 sequence (looked up): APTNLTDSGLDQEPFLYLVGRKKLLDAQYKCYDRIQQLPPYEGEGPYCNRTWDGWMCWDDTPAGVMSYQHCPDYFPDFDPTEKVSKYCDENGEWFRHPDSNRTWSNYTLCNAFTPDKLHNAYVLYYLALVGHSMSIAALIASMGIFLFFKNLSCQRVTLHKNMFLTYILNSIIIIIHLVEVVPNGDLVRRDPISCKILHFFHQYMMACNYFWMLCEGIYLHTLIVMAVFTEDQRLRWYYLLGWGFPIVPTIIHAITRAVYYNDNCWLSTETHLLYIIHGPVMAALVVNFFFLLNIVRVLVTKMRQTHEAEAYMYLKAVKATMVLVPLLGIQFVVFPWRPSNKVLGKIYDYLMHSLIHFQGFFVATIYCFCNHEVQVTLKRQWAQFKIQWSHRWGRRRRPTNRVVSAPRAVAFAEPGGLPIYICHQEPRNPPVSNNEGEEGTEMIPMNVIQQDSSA

T2: human calcitonin receptor (human, UniProt P30988 25-474)
T2 construct: whole, on cells; Membranes of a stably transfected BHK cell line (Assay VII); also called hCTR; hCT
T2 sequence (looked up): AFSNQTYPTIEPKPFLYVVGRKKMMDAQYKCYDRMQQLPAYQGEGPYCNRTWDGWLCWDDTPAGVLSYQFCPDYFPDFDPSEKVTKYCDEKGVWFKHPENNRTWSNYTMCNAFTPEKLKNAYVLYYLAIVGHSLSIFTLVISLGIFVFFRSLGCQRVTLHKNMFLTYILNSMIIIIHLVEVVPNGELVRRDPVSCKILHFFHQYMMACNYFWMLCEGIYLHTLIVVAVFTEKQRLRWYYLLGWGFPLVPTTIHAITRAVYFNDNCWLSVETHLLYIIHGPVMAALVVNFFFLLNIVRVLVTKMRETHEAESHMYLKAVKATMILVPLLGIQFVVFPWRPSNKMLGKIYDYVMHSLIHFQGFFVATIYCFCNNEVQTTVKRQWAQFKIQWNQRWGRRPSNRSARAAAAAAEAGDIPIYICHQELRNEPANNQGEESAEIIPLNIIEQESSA

T3: rat amylin receptor (rat calcitonin receptor + rat RAMP 3) (rat, UniProt P32214 25-516; Q9JJ73 23-147)
T3 construct: whole, on cells; Membranes of transiently transfected BHK tk'ts 13 cells (Assay VI); also called rAmylin-R; rat amylin 3(a) receptor
T3 sequence (looked up) 1: T1 sequence (looked up)
T3 sequence (looked up) 2: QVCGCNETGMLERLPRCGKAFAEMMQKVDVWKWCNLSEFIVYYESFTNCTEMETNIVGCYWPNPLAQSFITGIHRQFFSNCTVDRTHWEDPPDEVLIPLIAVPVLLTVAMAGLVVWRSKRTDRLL

B1: N^ε1-[(4S)-4-carboxy-4-(19-carboxynonadecanoylamino)butanoyl]-[His14,Arg17,Pro21,Pro27,Pro34,Pro37]-h-amylin (peptide)
peptide: K([γGlu-C20 diacid])CNTATCATQRLAHFLRHSSPNFGAIPSSTNVGPNTP-NH2
modifications: disulfide 2-7; N-terminus assumed
SMILES: CC[C@H](C)[C@H](NC(=O)[C@H](C)NC(=O)CNC(=O)[C@H](Cc1ccccc1)NC(=O)[C@H](CC(N)=O)NC(=O)[C@@H]1CCCN1C(=O)[C@H](CO)NC(=O)[C@H](CO)NC(=O)[C@H](Cc1c[nH]cn1)NC(=O)[C@H](CCCNC(=N)N)NC(=O)[C@H](CC(C)C)NC(=O)[C@H](Cc1ccccc1)NC(=O)[C@H](Cc1c[nH]cn1)NC(=O)[C@H](C)NC(=O)[C@H](CC(C)C)NC(=O)[C@H](CCCNC(=N)N)NC(=O)[C@H](CCC(N)=O)NC(=O)[C@@H](NC(=O)[C@H](C)NC(=O)[C@@H]1CSSC[C@H](NC(=O)[C@@H](N)CCCCNC(=O)CC[C@H](NC(=O)CCCCCCCCCCCCCCCCCCC(=O)O)C(=O)O)C(=O)N[C@@H](CC(N)=O)C(=O)N[C@@H]([C@@H](C)O)C(=O)N[C@@H](C)C(=O)N[C@@H]([C@@H](C)O)C(=O)N1)[C@@H](C)O)C(=O)N1CCC[C@H]1C(=O)N[C@@H](CO)C(=O)N[C@@H](CO)C(=O)N[C@H](C(=O)N[C@@H](CC(N)=O)C(=O)N[C@H](C(=O)NCC(=O)N1CCC[C@H]1C(=O)N[C@@H](CC(N)=O)C(=O)N[C@H](C(=O)N1CCC[C@H]1C(N)=O)[C@@H](C)O)C(C)C)[C@@H](C)O
B2: N^ε1-[(4S)-4-carboxy-4-[[(4S)-4-carboxy-4-(19-carboxynonadecanoylamino)butanoyl]amino]butanoyl]-[Arg17,Pro21,Pro27,His34]-h-amylin (peptide)
peptide: K([γGlu-γGlu-C20 diacid])CNTATCATQRLANFLRHSSPNFGAIPSSTNVGHNTY-NH2
modifications: disulfide 2-7; N-terminus assumed
SMILES: CC[C@H](C)[C@H](NC(=O)[C@H](C)NC(=O)CNC(=O)[C@H](Cc1ccccc1)NC(=O)[C@H](CC(N)=O)NC(=O)[C@@H]1CCCN1C(=O)[C@H](CO)NC(=O)[C@H](CO)NC(=O)[C@H](Cc1c[nH]cn1)NC(=O)[C@H](CCCNC(=N)N)NC(=O)[C@H](CC(C)C)NC(=O)[C@H](Cc1ccccc1)NC(=O)[C@H](CC(N)=O)NC(=O)[C@H](C)NC(=O)[C@H](CC(C)C)NC(=O)[C@H](CCCNC(=N)N)NC(=O)[C@H](CCC(N)=O)NC(=O)[C@@H](NC(=O)[C@H](C)NC(=O)[C@@H]1CSSC[C@H](NC(=O)[C@@H](N)CCCCNC(=O)CC[C@H](NC(=O)CC[C@H](NC(=O)CCCCCCCCCCCCCCCCCCC(=O)O)C(=O)O)C(=O)O)C(=O)N[C@@H](CC(N)=O)C(=O)N[C@@H]([C@@H](C)O)C(=O)N[C@@H](C)C(=O)N[C@@H]([C@@H](C)O)C(=O)N1)[C@@H](C)O)C(=O)N1CCC[C@H]1C(=O)N[C@@H](CO)C(=O)N[C@@H](CO)C(=O)N[C@H](C(=O)N[C@@H](CC(N)=O)C(=O)N[C@H](C(=O)NCC(=O)N[C@@H](Cc1c[nH]cn1)C(=O)N[C@@H](CC(N)=O)C(=O)N[C@H](C(=O)N[C@@H](Cc1ccc(O)cc1)C(N)=O)[C@@H](C)O)C(C)C)[C@@H](C)O
notes: also called compound 86
B3: N^ε1-[(4S)-4-carboxy-4-[[(4S)-4-carboxy-4-(19-carboxynonadecanoylamino)butanoyl]amino]butanoyl]-[Glu14,Arg17,Pro21,Pro27,Arg34,Glu35]-h-amylin (peptide)
peptide: K([γGlu-γGlu-C20 diacid])CNTATCATQRLAEFLRHSSPNFGAIPSSTNVGRETY-NH2
modifications: disulfide 2-7; N-terminus assumed
SMILES: CC[C@H](C)[C@H](NC(=O)[C@H](C)NC(=O)CNC(=O)[C@H](Cc1ccccc1)NC(=O)[C@H](CC(N)=O)NC(=O)[C@@H]1CCCN1C(=O)[C@H](CO)NC(=O)[C@H](CO)NC(=O)[C@H](Cc1c[nH]cn1)NC(=O)[C@H](CCCNC(=N)N)NC(=O)[C@H](CC(C)C)NC(=O)[C@H](Cc1ccccc1)NC(=O)[C@H](CCC(=O)O)NC(=O)[C@H](C)NC(=O)[C@H](CC(C)C)NC(=O)[C@H](CCCNC(=N)N)NC(=O)[C@H](CCC(N)=O)NC(=O)[C@@H](NC(=O)[C@H](C)NC(=O)[C@@H]1CSSC[C@H](NC(=O)[C@@H](N)CCCCNC(=O)CC[C@H](NC(=O)CC[C@H](NC(=O)CCCCCCCCCCCCCCCCCCC(=O)O)C(=O)O)C(=O)O)C(=O)N[C@@H](CC(N)=O)C(=O)N[C@@H]([C@@H](C)O)C(=O)N[C@@H](C)C(=O)N[C@@H]([C@@H](C)O)C(=O)N1)[C@@H](C)O)C(=O)N1CCC[C@H]1C(=O)N[C@@H](CO)C(=O)N[C@@H](CO)C(=O)N[C@H](C(=O)N[C@@H](CC(N)=O)C(=O)N[C@H](C(=O)NCC(=O)N[C@@H](CCCNC(=N)N)C(=O)N[C@@H](CCC(=O)O)C(=O)N[C@H](C(=O)N[C@@H](Cc1ccc(O)cc1)C(N)=O)[C@@H](C)O)C(C)C)[C@@H](C)O
B4: N^ε1-[(4S)-4-carboxy-4-[[(4S)-4-carboxy-4-(19-carboxynonadecanoylamino)butanoyl]amino]butanoyl]-[Arg17,Pro21,Pro27,Pro31,Pro34,Arg35]-h-amylin (peptide)
peptide: K([γGlu-γGlu-C20 diacid])CNTATCATQRLANFLRHSSPNFGAIPSSTPVGPRTY-NH2
modifications: disulfide 2-7; N-terminus assumed
SMILES: CC[C@H](C)[C@H](NC(=O)[C@H](C)NC(=O)CNC(=O)[C@H](Cc1ccccc1)NC(=O)[C@H](CC(N)=O)NC(=O)[C@@H]1CCCN1C(=O)[C@H](CO)NC(=O)[C@H](CO)NC(=O)[C@H](Cc1c[nH]cn1)NC(=O)[C@H](CCCNC(=N)N)NC(=O)[C@H](CC(C)C)NC(=O)[C@H](Cc1ccccc1)NC(=O)[C@H](CC(N)=O)NC(=O)[C@H](C)NC(=O)[C@H](CC(C)C)NC(=O)[C@H](CCCNC(=N)N)NC(=O)[C@H](CCC(N)=O)NC(=O)[C@@H](NC(=O)[C@H](C)NC(=O)[C@@H]1CSSC[C@H](NC(=O)[C@@H](N)CCCCNC(=O)CC[C@H](NC(=O)CC[C@H](NC(=O)CCCCCCCCCCCCCCCCCCC(=O)O)C(=O)O)C(=O)O)C(=O)N[C@@H](CC(N)=O)C(=O)N[C@@H]([C@@H](C)O)C(=O)N[C@@H](C)C(=O)N[C@@H]([C@@H](C)O)C(=O)N1)[C@@H](C)O)C(=O)N1CCC[C@H]1C(=O)N[C@@H](CO)C(=O)N[C@@H](CO)C(=O)N[C@H](C(=O)N1CCC[C@H]1C(=O)N[C@H](C(=O)NCC(=O)N1CCC[C@H]1C(=O)N[C@@H](CCCNC(=N)N)C(=O)N[C@H](C(=O)N[C@@H](Cc1ccc(O)cc1)C(N)=O)[C@@H](C)O)C(C)C)[C@@H](C)O

Target: T1, rat calcitonin receptor
Assay: ratio IC50 rat calcitonin receptor / IC50 rat amylin receptor (reference)

How did the “Ratio rCT/rAmylin binding” value turn out when B1 was run?
The value was 3.

B2 was tested. Which “Ratio rCT/rAmylin binding” value did it give?
Its value is 126.

Which “Ratio rCT/rAmylin binding” value does the source give for B3 here?
Its value is 158.

Which “Ratio rCT/rAmylin binding” value does the source give for B4 here?
Its value is 137.

Target: T2, human calcitonin receptor
Assay: ratio IC50 human calcitonin receptor / IC50 human amylin receptor (reference)
Summary of the method: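 Scintillation proximity competition binding on cell membranes at 35 ng/μL with SPA beads, in 50 mM Hepes pH 7.4, 1 mM CaCl2, 5 mM MgCl₂, 0.1% OA, 0.02% Tween20. Incubated 120 min at 25° C with shaking. IC₅₀ from one-site competition fit.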

B1 was tested. Which “Ratio hCT/hAmylin binding” value did it give?
Its value is 1.2.

With B2 as the binder, how does the “Ratio hCT/hAmylin binding” value read?
The value was 159.

With B3 as the binder, how does the “Ratio hCT/hAmylin binding” value read?
Its value is 14.7.

Which “Ratio hCT/hAmylin binding” value does the source give for B4 here?
Its value is 48.6.

Target: T1, rat calcitonin receptor
Assay: SPA competition with 125I-calcitonin, membranes of BHK cells with rat calcitonin receptor (Assay VIII)

For B1, which IC50 is on record?
The IC50 was 0.371 nM.

Which IC50 does the source give for B2 here?
The IC50 was 352 nM.

With B3 as the binder, how does the IC50 read?
Its IC50 is 452 nM.

Which IC50 does the source give for B4 here?
Its IC50 is 52.4 nM.

Target: T3, rat amylin receptor (rat calcitonin …)
Assay: SPA competition with 125I-rat amylin, membranes of BHK cells with rat calcitonin receptor + rat RAMP3 (Assay VI)

Which IC50 does the source give for B1 here?
Its IC50 is 0.125 nM.

How did the IC50 turn out when B2 was run?
The IC50 was 2.8 nM.

B3 was tested. Which IC50 did it give?
The IC50 was 2.86 nM.

With B4 as the binder, how does the IC50 read?
Its IC50 is 0.381 nM.
